Results as given in article PMC5597257.

What was measured:
[1] = molecular target: NbHUB1-GFP (Nicotiana benthamiana); assay: FRET or BRET; FRET by acceptor photobleaching in epidermal cells of N. benthamiana leaves; EGFP/GFP fusion as donor, DsRed fusion as acceptor; FRET efficiency (EF) in percent; without ChiLCV
[2] = molecular target: Rep-DsRed (Chilli leaf curl virus); assay: FRET or BRET; FRET by acceptor photobleaching in epidermal cells of N. benthamiana leaves, in the presence of ChiLCV, Rep proteins organised as punctate bodies
[3] = molecular target: NbUBC2-DsRed (Nicotiana benthamiana); assay: FRET or BRET; FRET by acceptor photobleaching in epidermal cells of N. benthamiana leaves; EGFP/GFP fusion as donor, DsRed fusion as acceptor; FRET efficiency (EF) in percent; without ChiLCV
[4] = molecular target: NbUBC2-EGFP (Nicotiana benthamiana); assay: as above

Row | Substance | FRET efficiency [1] [%] | FRET efficiency in the presence of ChiLCV [2] [%] | FRET efficiency [3] [%] | FRET efficiency [4] [%]
1 | Rep-DsRed (natural protein) | 58.7 | – | – | –
2 | Rep-EGFP (natural protein) | – | 68.7 | 43.7 | –
3 | Rep_(1-120)-DsRed (domain or fragment) | 45 | – | – | 38
4 | Rep_(1-180)-DsRed (domain or fragment) | 44 | – | – | 40.5
5 | Rep_(181-361)-DsRed (domain or fragment) | 58.5 | – | – | –
